B1: 2H09 monoclonal antibody (BNA-mAb) (antibody, V domains shown)
VH: EVQLVESGGGLVQPGGSLRLSCAASGVTLDNYWVHWVRQVPGKGLVWVSRINADGTSKTYADSVKGRFTISRDTTRNTLFLQMNSLRGDDTALYFCARGGLYSSDAFDVWGQGTMVTVSS
VL: QSALTQPPSASGSPGQSVTISCTGTSWDVGRYNHVSWYQHHPGKAHKLIIYEVNRRPSGVPDRFSGSKSANTASLTVSGLQAEDEADYYCSSYTGNNVAVFGGGTKLTVL
B2: 3C01 monoclonal antibody (BNA-mAb) (antibody, V domains shown)
VH: EVQLVESGGGLVQPGGSLRLSCAASGFPFSHYYMHWVRRAPGKGLVWVSRIYSDGTSSSYGDSVKGRFTISRDNAKNILYLQMNSLRAEDSATYYCCRGGYYSLDGFDFWGQGTMVTVSS
VL: DIQMTQSPLSLSVSEGDRVTITCRASQGIGNDLGWYQLKPGKAPKRLIYGASSLQSGVPSRFSGSGSGTEFTLTISSLQPEDFATYFCLQHSSFPYTFGQGTKVEIK

Target: NA of B/New York/PV00094/17 (Y), on purified virus (Influenza B virus B/New York/PV00094/17)

Row | Binder | percent competition [%]
1 | B1 | 90
2 | B2 | 90

Reference: patent US20230077716A1
